Source: publication PMC12605379, “Monomeric Glycine oxidase from Azotobacter vinelandii for Glycine biosensing” (World Journal of Microbiology & Biotechnology, 2025)

Experiments:
[1] = biological target: T1, AviGO (glycine oxidase from A. vinelandii) (Azotobacter vinelandii, UniProt C1DPI5); test: UV-visible spectroscopy of the purified enzyme; type: binding; settings: copurified cofactor; occupancy, no affinity constant
T1 construct: gene thiO; codon-optimised synthetic gene in pCold I (NdeI/XbaI), expressed in E. coli BL21(DE3); HisTrap then Q-Sepharose, vector His tag, no cleavage told
T1 sequence (C1DPI5 1-363): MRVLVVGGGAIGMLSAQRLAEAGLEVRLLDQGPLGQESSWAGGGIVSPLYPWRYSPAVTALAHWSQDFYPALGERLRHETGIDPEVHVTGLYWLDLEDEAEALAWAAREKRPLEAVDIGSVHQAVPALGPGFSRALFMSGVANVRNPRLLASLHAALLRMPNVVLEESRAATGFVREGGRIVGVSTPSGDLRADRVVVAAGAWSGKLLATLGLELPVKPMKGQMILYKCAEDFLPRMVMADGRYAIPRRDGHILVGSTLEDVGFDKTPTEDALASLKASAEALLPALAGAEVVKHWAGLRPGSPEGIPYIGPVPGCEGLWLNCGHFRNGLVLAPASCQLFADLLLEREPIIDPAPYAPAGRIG
Procedure: UV-visible spectroscopy of the purified enzyme on AviGO (glycine oxidase from A. vinelandii) | The FAD/AviGO ratio was calculated from UV-visible spectroscopy of the purified enzyme

[2] = biological target: T1, AviGO (glycine oxidase from A. vinelandii); test: HRP-coupled H2O2 assay (4-aminoantipyrine / N,N-diethylaniline, […] nm), substrate inhibition model; type: biochemical; settings: substrate inhibition constant; 100 mM Tris-HCl pH 8.5, free enzyme 20 nM
purified protein [3] = substrate: CNCC(=O)O; test: purified protein; type: biochemical, Azotobacter vinelandii; settings: 100 mM Tris-HCl pH 8.5, free enzyme 20 nM, 0.5-100 mM substrate
purified protein [4] = substrate: NCC(=O)O; test: purified protein; type: biochemical, Azotobacter vinelandii; settings: 100 mM Tris-HCl pH 8.5, free enzyme 20 nM, 0.5-100 mM substrate, abstract prints Km 4.65

`Cc1cc2nc3c(=O)[nH]c(=O)nc-3n(C[C@H](O)[C@H](O)[C@H](O)COP(=O)(O)OP(=O)(O)OC[C@H]3O[C@@H](n4cnc5c(N)ncnc54)[C@H](O)[C@@H]3O)c2cc1C` [FAD] showed an FAD/AviGO ratio [1] of 0.38.

In the case of `NCC(=O)O` [glycine], the “Glycine / ksi” value [2] is reported as 23.00 ± 3.71 mM.

B1: AviGO (glycine oxidase from A. vinelandii) (Azotobacter vinelandii DJ) (protein)
chain: T1 sequence (C1DPI5 1-363)
notes: codon-optimised synthetic gene in pCold I (NdeI/XbaI), expressed in E. coli BL21(DE3); HisTrap then Q-Sepharose, vector His tag, no cleavage told
B1 showed a Km (purified protein [3]) of 11.09 ± 0.75 mM, a kcat (purified protein [3]) of 0.62 ± 0.01 s⁻¹ and a Km (purified protein [4]) of 4.76 ± 0.83 mM. For the same molecule, the kcat (purified protein [4]) was 0.38 ± 0.03 s⁻¹.
